Patent US9074002B2, “PTP1B inhibitors” (Cold Spring Harbor Laboratory, priority 2009, dated 2015)

T1: endogenous PTP1B-OX (Homo sapiens, UniProt P18031)
T1 construct: endogenous in cells; host or cells: 293T cells (transfected only with the scFv intrabody)
T1 sequence (P18031 1-435): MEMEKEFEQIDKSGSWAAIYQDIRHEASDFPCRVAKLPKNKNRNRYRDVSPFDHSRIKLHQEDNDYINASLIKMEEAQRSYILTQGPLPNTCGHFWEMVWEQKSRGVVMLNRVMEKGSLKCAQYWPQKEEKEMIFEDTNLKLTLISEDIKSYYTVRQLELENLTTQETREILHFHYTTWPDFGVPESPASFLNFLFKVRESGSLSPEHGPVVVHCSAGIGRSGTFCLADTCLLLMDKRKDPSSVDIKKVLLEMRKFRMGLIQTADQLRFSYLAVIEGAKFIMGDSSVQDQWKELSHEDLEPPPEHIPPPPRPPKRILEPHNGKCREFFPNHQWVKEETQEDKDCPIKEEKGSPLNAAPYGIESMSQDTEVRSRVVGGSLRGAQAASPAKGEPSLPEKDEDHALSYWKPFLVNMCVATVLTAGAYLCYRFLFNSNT

T2: PTP1B under reducing condition (Homo sapiens, UniProt P18031)
T2 construct: made in house; host or cells: E. coli BL21 (pET19b)
T2 sequence (P18031 3-277 limits assumed): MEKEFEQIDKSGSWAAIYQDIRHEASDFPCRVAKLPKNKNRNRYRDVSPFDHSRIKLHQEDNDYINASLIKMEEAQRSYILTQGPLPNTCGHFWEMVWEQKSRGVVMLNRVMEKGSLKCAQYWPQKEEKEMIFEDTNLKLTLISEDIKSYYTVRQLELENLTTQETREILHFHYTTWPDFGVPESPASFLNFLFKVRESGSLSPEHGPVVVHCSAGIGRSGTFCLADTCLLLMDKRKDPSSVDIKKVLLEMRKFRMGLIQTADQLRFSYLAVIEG

T3: PTP1B-OX (Homo sapiens, UniProt P18031)
T3 construct: made in house; host or cells: E. coli BL21 (pET19b)
T3 sequence (P18031 3-277): T2 sequence (P18031 3-277 limits assumed)

B1: scFv61: scFv, SEQ ID NO: 94 and 164 (protein)
scFv: MKKTAIAIAVALAGFATVAQAALTQPSSVSANPGETVKITCSGGGSYAGSYYYGWYQQKAPGSAPVTLIYDNTNRPSNIPSRFSGSLSGSTGTLTITGVRAEDEAVYYCGSFDSSTDGGYAAIFGAGTTLTVLGQSSRSSAVTLDESGGGLQTPGGGLSLVCKASEFTFSSYAMEWVRQAPGKGLEWVAYINSDGSSTWYAPAVKGRATISRDNGQSTVRLQLNSLRAEDTATYYCTRGSGGENIDTWGHGTEVIVSSTSGQAGQHHHHHHGAYPYDVPDYAS
B2: scFv62: scFv, SEQ ID NO: 95 and 165 (protein)
scFv: MKKTAIAIAVALAGFATVAQAALTQPSSVSANPGGTVKITCSGSSSAYGYGWYQQKSPGSAPVTVIYNNNKRPSNIPSRFSGSKSGSTGTLTITGVQAEDEAVYFCGSEDSSTDAIFGAGTTLTVLGQSSRSSAVTLDESGGGLQTPGGALSLVCKASGFTFSSYDMGWVRQAPGKGLEYVAGITNDGRYASYGSAVDGRATISRDNGQSTVRLQLNNLRAEDTGTYYCARDDGSGWTGNTIDTWGHGTEVIVSSTSGQAGQHHHHHHGAYPYDVPDYAS
B3: scFv118: scFv, SEQ ID NO: 142 and 166 (protein)
scFv: MKKTAIAIAVALAGFATVAQAALTQPSSVSANLGGTVEITCSGGSGSYGWYQQKSPGGAPVTVIYYNDKRPSDIPSRFSGSKSGSTATLTITGVQVEDEAVYYCGSYDSSYVGIFGVGTTLTVLGQSSRSSAVTLDESGGGLQTPRGALSLVCKASGFTFSSYSMAWVRQAPGKGLEFVAGIQNDGSITDYGSAVDGRATISRDDGQSTVRLQLNNLRTEDTATYYCAKTTVADGVIGAYGIDAWGHGTEVIVSSTSGQAGQHHHHHHGAYPYDVPDYAS
B4: scFv24: scFv, SEQ ID NO: 57 (protein)
scFv: MKKTAIAIAVALAGFATVAQAAVSASPGDTVKITCSGGNSSYGYGWYQQKSPGSAPVSVIYYNDERPSDIPSRFSGSASGSTATLTITGVQADDEAVYYCGNADSSTYAGIFGAGTTLTVLGQSSRSSAVTLDESGGGLQTPGGGLSLVCKASGFDFSTNAMGWVRQAPGKGLEWVAGISGSGSSTWYATAVKGRATISRDNGQSTVRLQLNNLRAEDTGTYYCTKYVGDYYWYIDAGSIDAWGHGTEVIVSSTSGQAGQHHHHHHGAYPYDVPDYAS
B5: scFv21: scFv, SEQ ID NO: 54 (protein)
scFv: MKKTAIAIAVALAGFATVAQAALTQPSSVSANPGGTVKITCSGSSGSYYGWYQQKSPGSAPVTVIYDNDKRPSDVPSRFSGSKSGPTATLTITGVQAEDEAVYFCGSRDNSYVGIFGAGTTLTVLGQSSRSSAVTLDESGGGLQTPGGALSLVCKASGFTFSSYDMFWVRQAPGKGLEFVAQINSAGSYTNYGSAVKGRATISRDDGQSTVRLQLNNLRAEDTGIYFCAKSASGYYYSGSDAGDIDAWGHGTEVIVSSTSGQAGQHHHHHHGAYPYDVPDYAS
B6: scFv105: scFv, SEQ ID NO: 132 (protein)
scFv: MKKTAIAIAVALAGFATVAQAALTQPSSVSANPGEAVKITCSGSSGSYGWYQQKSPGSAPVTVIYYNDKRPSDIPSRFSGSTSGSTSTLTITGVQAEDEAVYFCGGYDSNYLGIFGAGTTLTVLGQSSRSSAVTLDESGGGLQTPRGALSLVCKASGFTFSSYSMAWVRQAPGKGLEFVAGIQNDGSITDYGSAVDGRATISRDDGQSTVRLQLNNLRTEDTATYYCAKTTVADGVIGAYGIDAWGHGTEVIVSSTSGQAGQHHHHHHGAYPYDVPDYAS
B7: scFv28: scFv, truncated sequence, SEQ ID NO: 61 (protein)
scFv: MKKTAIAIAVALAGFATVAQAAVIYSNDERPSDIPSRFSGSTSGSTSTLTITGVQADDEAVYFCGSADSSTYAGIFGAGTTLTVLGQSSRSSAVTLDESGGGLQTPGGALSLVCKASGFTFSSFNMFWVRQAPGRGLEFVAGITSSGGSTYYGTAVKGRATISRDNGQSTVRMQLNNLRAEDTGTYFCARGAYDYYFYWNYAGTIDAWGHGTEVIVSSTSGQAGQHHHHHHGAYPYDVPDYAS

Target: T1, endogenous PTP1B-OX
Test: Intrabody interaction in 293T cells treated with H2O2 (Ni-NTA pull down / anti-PTP1B immunoprecipitation)
Assay type: cell-based
Conditions: 1 mM H2O2 5 minutes, FIGS. 11, 12
Method: One of the positive candidate scFvs (scFv45) was cloned in pcDNA3.2/V5-GW/D-TOPO expression vector and transiently expressed in mammalian cells as stable intracellular antibody (aka intrabody) (FIG. 10). To detect PTP1B-OX and scFv45 interaction in mammalian cells, scFv45 was overexpressed in 293T cells as described herein (See Example 4) and 48 hours post transfection the cells were serum-starved for 16 hours in growth medium (DMEM, low glucose) without serum (FBS), then incubated with 1 mM H2O2 (in growth medium without serum) for 5 minutes at 37° C. or treated with 20 mM NAC (in growth medium without serum) for 1 hour at 37° C. Cells treated with H2O2 were washed twice with cold (4° C.) PBS and lysed in lysis buffer (25 mM HEPES, pH 7.4, 150 mM NaCl, 0.25% Deoxychloate, 1% TritonX-100, 25 mM NaF, 10 mM MgCl2, 1 mM EDTA, 10% Glycerol, 0.5 mM PMSF, 10 mM Benzamidine, protease inhibitor cocktail). Cells treated with NAC were lysed with lysis buffer containing 2 mM TCEP to ensure a post-lysis reducing environment. Interaction between PTP1B and intrabody45 were tested by pulling down the protein complex from 1 mg of total cell lysate with Ni-NTA agarose or by immunoprecipitating PTP with anti-PTP1B (FG6). For the pull down experiment, Ni-NTA agarose beads were incubated with the lysates (both oxidized and reduced) at 4° C. Protein complex bound to the Ni-NTA agarose beads was pulled down and washed three times; first with lysis buffer containing 20 mM imidazole followed by two more washes with wash buffer (PBS, pH 7.4, 20 mM imidazole, 0.05% BSA, 0.05% Tween-20 and protease inhibitors). Applicant used 20 mM imidazole in the wash buffer to reduce the non-specific binding of proteins with the Ni-NTA agarose beads. The complex was eluted with wash buffer containing 500 mM imidazole with gentle shaking at 4° C. and the eluate was mixed with SDS sample buffer with DTT. For the immunoprecipitation experiments, 1 mg of total cell lystates (both oxidized and reduced) was incubated with anti-PTP1B antibody (FG6) at 4° C. The interacting protein complex was immunoprecipitated after incubating the lysate-antibody mixture with protein A/G Sepharose at 4° C. After immunoprecipitation, Sepharose beads were washed three times; first with lysis buffer followed by two more washes with wash buffer (PBS, pH 7.4, 0.05% BSA, 0.05% Tween-20 and protease inhibitors). The Sepharose beads were then heated at 90° C. in 2×SDS sample buffer with DTT. Proteins from the pulled down or immunoprecipitated complex were separated by SDS-PAGE. PTP was detected with anti-PTP1B antibody (FG6) and the intrabodies were detected with anti-HA (3F10)-HRP antibody [anti-HA (3F10)-HRP, Roche] by immunoblotting.
In the initial in vitro phosphatase screening assay using reversibly oxidized (with H2O2) recombinant PTP1B, Applicant found four different PTP1B-OX specific scFvs (scFv45, scFv57, scFv64 and scFv106) from the initial pool of 12 different scFvs. […] Applicant has also shown that scFv45, expressed as an intrabody in mammalian cells, can bind to endogenous PTP1B-OX but not endogenous PTP under reducing conditions. Further assessment was carried out to identify additional PTP1B-OX-specific intrabodies. Additional scFvs have been subcloned in pcDNA3.2/V5-GW/D-TOPO mammalian expression vector (FIG. 10) from their respective phagemid constructs. After transient overexpression of these scFvs as intrabodies in 293T cells, the interaction between endogenous PTP1B and these intrabodies in both H2O2-treated cells and cells was observed under reducing condition (treated with NAC and lysed with lysis buffer containing TCEP). […] All can be used in the methods and compositions described herein. Additional scFvs, such as some or all of the 137 selected individual scFvs from the library, can be similarly tested by in vitro screening and/or by binding assay in mammalian cells.

binding of intrabody to endogenous PTP1B-OX	Molecule
bound weakly to PTP1B-OX	B1
bound weakly to PTP1B-OX	B2
bound weakly to PTP1B-OX	B3

Target: T2, PTP1B under reducing condition
Test: In vitro binding assay, purified recombinant PTP1B (37 kDa) and purified scFv, Ni-NTA pull down, reducing condition
Conditions: with 2 mM TCEP; FIG. 9
Method: (§1) They established conditions in which PTP1B is reversibly oxidized by H2O2 in solution (FIG. 8). An artificial protein substrate RCML, in which tyrosine was phosphorylated with ^32P using recombinant GST-FER kinase was used in this assay to measure the phosphatase activity. Recombinant PTP (37 kDa) was incubated with increasing concentration (50 μM to 100 mM) of H2O2. A quick buffer exchange was done to remove the H2O2 and reducing agent (TCEP) was added to reactivate the enzyme.
(§2) In the in vitro binding assay, purified PTP was reversibly oxidized with […] followed by a quick buffer exchange to remove H2O2 (FIG. 8). Purified scFv was incubated in molar excess with PTP1B-OX or with PTP under reducing condition (with 2 mM TCEP) in binding buffer (20 mM HEPES, pH 7.4, 300 mM NaCl, 0.05% BSA, 0.05% Tween-20 and 10 mM imidazole) for 2 hours at 4° C. Ni-NTA agarose was added and incubated for one hour at 4° C. Protein complex bound to Ni-NTA agarose beads was pulled down and washed (three times, 5 minutes each, at 4° C.) with binding buffer containing 20 mM imidazole to reduce non-specific binding to the beads. The protein complex was eluted from the Ni-NTA agarose beads with 500 mM imidazole (in binding buffer, pH 7.4) for 15 minutes at 4° C. with gentle shaking. The complex was separated by SDS-PAGE and PTP1B was detected with anti-PTP1B antibody (FG6) and scFv was detected with anti-HA antibody [anti-HA (3F10)-HRP, Roche] by immunoblotting. Eight different scFvs (scFvs 20, 21, 24, 28, 45, 48, 57, and 105), expressed and purified from bacterial cultures were tested by this in vitro binding experiment.

binding to PTP1B under reducing condition in vitro	Molecule
no significant binding	B4
no significant binding	B5
no significant binding	B6
no significant binding	B7

Target: T3, PTP1B-OX
Test: In vitro binding assay, purified recombinant PTP1B (37 kDa) and purified scFv, Ni-NTA pull down
Conditions: purified proteins, scFv in molar excess, 2 hours at 4° C.; FIG. 9
Method: as §1, §2

binding to PTP1B-OX in vitro	Molecule
no significant binding	B4
no significant binding	B5
no significant binding	B6
no significant binding	B7
